Measured values reported in patent US20030158387A1 (PHARIS BIOTEC, published 2003).
Where two headings read alike, the source gives them in different places. *: point of attachment. Nonanoyl = CCCCCCCCC(=O)*

B1: processed human chemokine PHC-1 (HCC-1[9-74]) (ligand)
chain: GPYHPSECCFTYTTYKIPRQRIMDYYETNSQCSKPGIVFITKRGHSVCTNPSDKWVQDYIKDMKEN
notes: Purified from human hemofiltrate or made by tryptic digestion of HCC-1 (1-74)
B2: HCC-1[12-74] (ligand)
chemokine chain: HPSECCFTYTTYKIPRQRIMDYYETNSQCSKPGIVFITKRGHSVCTNPSDKWVQDYIKDMKEN
notes: Not in the list MOLECULES; also called PHC-2
B3: HCC-1[10-74] (ligand)
chain: PYHPSECCFTYTTYKIPRQRIMDYYETNSQCSKPGIVFITKRGHSVCTNPSDKWVQDYIKDMKEN
notes: Synthetic, oxidatively folded
B4: NNY-HCC-1[10-74] (nonanoyl-HCC-1[10-74]) (ligand)
chain: Nonanoyl-PYHPSECCFTYTTYKIPRQRIMDYYETNSQCSKPGIVFITKRGHSVCTNPSDKWVQDYIKDMKEN
modifications: ends and bridges not checked
notes: Chemokine compound analog, synthetic
B5: RANTES (ligand, UniProt P13501 24-91, looked up)
chain: SPYSSDTTPCCFAYIARPLPRAHIKEYFYTSGKCSNPAVVFVTRKNRQVCANPEKKWVREYINSLEMS
modifications: ends and bridges not checked; also: 125I-labelled where used as tracer, unlabelled in functional assays
B6: HCC-1, residues 6-74 (ligand)
chain: SSRGPYHPSECCFTYTTYKIPRQRIMDYYETNSQCSKPGIVFITKRGHSVCTNPSDKWVQDYIKDMKEN
notes: also called HCC-1[6-74]
B7: HCC-1[8-74] (ligand)
chain: RGPYHPSECCFTYTTYKIPRQRIMDYYETNSQCSKPGIVFITKRGHSVCTNPSDKWVQDYIKDMKEN
notes: Synthetic, oxidatively folded
B8: HCC-1[7-74] (ligand)
chain: SRGPYHPSECCFTYTTYKIPRQRIMDYYETNSQCSKPGIVFITKRGHSVCTNPSDKWVQDYIKDMKEN
notes: Synthetic, oxidatively folded
B9: HCC-1[11-74] (ligand)
chain: YHPSECCFTYTTYKIPRQRIMDYYETNSQCSKPGIVFITKRGHSVCTNPSDKWVQDYIKDMKEN
notes: Synthetic, oxidatively folded

Columns and labels:
[1] = molecular target: T1, chemokine receptor 5 (CCR5) (human, UniProt P51681 1-352); experiment: competition radioligand binding, membranes of CHO-K1 cells expressing CCR5, tracer [125I]-MIP-1 beta
T1 construct: whole, on cells

[2] = molecular target: T2, chemokine receptor CCR3 (UniProt P51677 1-355, limits assumed); experiment: competition with 125I-Eotaxin for binding to CCR3
T2 construct: whole, on cells
T2 sequence (looked up): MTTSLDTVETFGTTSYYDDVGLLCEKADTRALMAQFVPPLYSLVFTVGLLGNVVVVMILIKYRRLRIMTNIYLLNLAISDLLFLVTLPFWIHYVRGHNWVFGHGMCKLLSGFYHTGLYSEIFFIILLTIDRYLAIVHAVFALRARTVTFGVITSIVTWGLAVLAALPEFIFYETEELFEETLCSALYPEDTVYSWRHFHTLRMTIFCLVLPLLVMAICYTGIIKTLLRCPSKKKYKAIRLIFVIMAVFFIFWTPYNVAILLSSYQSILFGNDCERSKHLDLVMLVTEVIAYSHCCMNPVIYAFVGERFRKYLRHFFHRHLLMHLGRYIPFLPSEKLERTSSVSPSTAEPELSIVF
Description: (§1) For determination of its binding properties, CHO-K1 cells were used which were stably transfected with the chemokine receptors CCR1, CCR3, CCR5. Therefore, crude membrane extracts prepared from the CHO-K1 cell lines expressing the various GPC were used in radioligand binding assays. Competition binding assays were performed in Minisorp tubes (Nunc, Roskilde, Denmark) in a total volume of 100 μl containing 0.11 nM iodinated ligand as tracer, variable concentrations of competitors and defined amount of membranes. Total binding was measured in the absence of competitor and non-specific binding was measured with a 100-fold excess, of unlabelled ligand. Samples were incubated for 90 minutes at 25° C. then filtered through GF/B filters presoaked in 0.3% polyethylenenimine. Filters were counted in a gamma scintillation counter (Packard). Binding parameters were determined with the PRISM software (Graphpad software, San Diego, Calif.) using non-linear regression applied to a one site competition model.

[3] = molecular target: T1, chemokine receptor 5 (CCR5); experiment: competition radioligand binding, membranes of CHO-K1 cells expressing CCR5, tracer [125I]-MIP-1 beta; remark: listed apart in the source
[4] = molecular target: T1, chemokine receptor 5 (CCR5); experiment: cell-based or functional assay
[5] = molecular target: T1, chemokine receptor 5 (CCR5); experiment: cell-based or functional assay; remark: listed apart in the source
[6] = molecular target: T2, chemokine receptor CCR3; experiment: competition with 125I-Eotaxin, membranes of CHO-K1 cells expressing CCR3, filtration, one site competition model; 125I-Eotaxin tracer, CCR3 membranes
Description: as §1

[7] = molecular target: T1, chemokine receptor 5 (CCR5); experiment: cell-based or functional assay; remark: listed apart in the source
[8] = molecular target: T1, chemokine receptor 5 (CCR5); experiment: competition with 125I-MIP-1 alpha for binding to CCR5
Description: as §1

[9] = molecular target: T2, chemokine receptor CCR3; experiment: cell-based or functional assay
[10] = molecular target: T1, chemokine receptor 5 (CCR5); experiment: competition radioligand binding, membranes of CHO-K1 cells expressing CCR5, tracer [125I]-MIP-1 beta; mean ± SEM
[11] = molecular target: T1, chemokine receptor 5 (CCR5); experiment: competition with 125I-MIP-1 alpha, membranes of CHO-K1 cells expressing CCR5, filtration, one site competition model; 125I-MIP 1-alpha tracer, CCR5 membranes
Description: as §1

T1 sequence (P51681 whole entry): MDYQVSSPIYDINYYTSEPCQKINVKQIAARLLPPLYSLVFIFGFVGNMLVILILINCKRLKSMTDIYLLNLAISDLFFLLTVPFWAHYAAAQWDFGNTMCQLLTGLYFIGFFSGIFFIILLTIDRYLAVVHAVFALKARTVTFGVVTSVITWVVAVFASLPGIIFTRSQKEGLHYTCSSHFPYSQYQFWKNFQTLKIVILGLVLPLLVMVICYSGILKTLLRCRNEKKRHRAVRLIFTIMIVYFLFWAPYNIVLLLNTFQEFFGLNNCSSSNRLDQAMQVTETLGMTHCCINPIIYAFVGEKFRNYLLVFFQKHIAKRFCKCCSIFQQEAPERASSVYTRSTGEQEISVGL

Binder | IC50 (read off the curve) [1] | IC50 (read off the curve) [3] | EC50 (read off the curve) [4] | EC50 (read off the curve) [5] | EC50 (aequorin luminescence, CHO-K1 cells expressing CCR5) [7] | IC50 [10] | other results
B1 | ~0.1 nM | ~0.1 nM | ~7 nM | ~7 nM | 6.45 nM | 0.0961 nM | Ki [2]: 2.7 nM; IC50 [6]: 2.7 nM; Ki [8]: 0.04 nM; EC50 of receptor activation (aequorin assay) [9]: 78 nM; IC50 [11]: 0.04 nM
B2 | – | – | – | – | – | 4.29 nM | –
B3 | ~0.1 nM | ~0.1 nM | ~6 nM | ~6 nM | 3.48 nM | 0.065 nM | –
B4 | ~0.04 nM | – | ~1 nM | – | 0.453 nM | 0.0343 nM | –
B5 | – | – | ~10 nM | ~10 nM | 8.48 nM | – | –
B6 | – | ~20 nM | – | – | 402 nM | 21.6 nM | –
B7 | – | – | – | – | 177 nM | 5.9 nM | –
B8 | – | – | – | – | 165 nM | 7.72 nM | –
B9 | – | – | – | – | 224 nM | 1.2 nM | –
